In US20080306007A1 (NEWCASTLE INNOVATION, published 2008):

Legend:
[1] = target: T1, syndapin I (native, from rat brain lysate or synaptosomes) (rat, UniProt Q9Z0W5 1-441); experiment: GST pull-down from rat brain lysate
T1 construct: also called PACSIN I; 52 kDa band

[2] = target: T2, endophilin I (native, from rat brain lysate or synaptosomes) (rat, UniProt O35179 1-352); experiment: peptide competition in GST-DynI-PRD pull-down from rat brain lysate, Western blot
T2 construct: mature
Procedure: Total rat brain extract was prepared by homogenising brain tissue in ice-cold lysis buffer (1% Triton X-100, 150 mM NaCl, 25 mM Tris pH 7.4, 1 mM EDTA, 1 mM EGTA, 20 μg/ml leupeptin, 1 mM phenylmethylsulfonyl fluoride and EDTA-free Complete protease inhibitor (Roche)). The homogenate was centrifuged twice at 75,600 g for 30 min at 4° C. The supernatant was pre-cleared by addition of GSH-sepharose beads for 1 h, pelleted at 50 g for 5 min at 4° C., and the supernatant collected. GST-DynI-PRD recombinant proteins were then incubated with an equal amount of tissue lysate at 4° C. for 1 h. Beads were washed extensively with ice-cold 20 mM Tris pH 7.4 containing 1 mM EGTA, eluted in 2×SDS-PAGE sample buffer, resolved on 7.5-15% gradient SDS gels and stained with colloidal Coomassie Blue. Identification of proteins was by matrix-assisted laser desorption ionization time-of-flight mass spectrometry (MALDI-TOF MS). Some peptides were sequenced by tandem MS/MS.
A common characteristic of most binding sites for SH3 domains is the presence of the core amino acid motif PxxP, which is often followed or preceded by a basic Arg residue. There are 13 such motifs in the dynamin I PRD (numbered from site 1 at the N-terminus of the PRD at Pro-753 in dynamin I). […]

T1 sequence (Q9Z0W5 whole entry): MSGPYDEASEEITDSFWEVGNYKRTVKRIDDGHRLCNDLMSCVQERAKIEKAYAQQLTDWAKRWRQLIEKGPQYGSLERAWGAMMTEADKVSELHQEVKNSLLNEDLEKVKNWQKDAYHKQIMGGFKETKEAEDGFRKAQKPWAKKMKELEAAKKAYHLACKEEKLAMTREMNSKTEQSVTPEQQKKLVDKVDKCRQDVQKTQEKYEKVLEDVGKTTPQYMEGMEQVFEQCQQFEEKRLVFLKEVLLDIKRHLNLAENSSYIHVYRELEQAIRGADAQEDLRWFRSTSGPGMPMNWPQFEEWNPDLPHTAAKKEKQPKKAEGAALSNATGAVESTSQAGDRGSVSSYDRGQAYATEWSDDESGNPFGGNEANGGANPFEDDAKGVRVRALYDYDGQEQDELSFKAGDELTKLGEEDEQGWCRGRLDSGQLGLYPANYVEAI
T2 sequence (O35179 whole entry): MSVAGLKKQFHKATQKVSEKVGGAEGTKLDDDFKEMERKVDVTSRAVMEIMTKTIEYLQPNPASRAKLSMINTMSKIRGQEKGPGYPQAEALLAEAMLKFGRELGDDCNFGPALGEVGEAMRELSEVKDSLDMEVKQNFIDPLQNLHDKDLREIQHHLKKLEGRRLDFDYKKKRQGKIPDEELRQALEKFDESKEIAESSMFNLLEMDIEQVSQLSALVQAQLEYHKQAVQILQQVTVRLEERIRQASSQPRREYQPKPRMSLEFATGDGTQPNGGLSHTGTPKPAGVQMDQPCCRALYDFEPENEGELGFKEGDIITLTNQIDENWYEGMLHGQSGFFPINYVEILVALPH

binding result [1] | fold weaker inhibitory effect than on syndapin I binding [2] [fold] | Binder
no binding |  | GST-DynI-2D (other, rat, UniProt P21575 746-864, looked up, range 746-864; not shown: glutathione S-transferase tag from vector pGEX4T-1) NTTTVSTPMPPPVDDSWLQVQSVPAGRRSPTSSPTPQEEAPAVPPARPGSRGPAPGPPPAGSALGGAPPVPSRPGASPDPFGPPPQVPSRPNRAPPGVPSRSGQASPSRPESPRPPFDL
no binding |  | GST-DynI-2E (other, rat, UniProt P21575 746-864, looked up, range 746-864; not shown: glutathione S-transferase tag from vector pGEX4T-1) NTTTVSTPMPPPVDDSWLQVQSVPAGRRSPTSSPTPQAAAPAVPPARPGSRGPAPGPPPAGSALGGAPPVPSRPGASPDPFGPPPQVPSRPNRAPPGVPSRSGQASPSRPESPRPPFDL
 | 5 | RRAPAVPPARPGSR (Synthetic peptide of the site 2 and site 3 region of dynamin I) [DynI783-796 peptide]
